This note sets out measurements from article PMC4231748, “Human PrimPol mutation associated with high myopia has a DNA replication defect”.

In the data set the target is T1, PrimPol1-354 (polymerase domain, wild type) (human, UniProt Q96LW4 1-354).
T1 sequence: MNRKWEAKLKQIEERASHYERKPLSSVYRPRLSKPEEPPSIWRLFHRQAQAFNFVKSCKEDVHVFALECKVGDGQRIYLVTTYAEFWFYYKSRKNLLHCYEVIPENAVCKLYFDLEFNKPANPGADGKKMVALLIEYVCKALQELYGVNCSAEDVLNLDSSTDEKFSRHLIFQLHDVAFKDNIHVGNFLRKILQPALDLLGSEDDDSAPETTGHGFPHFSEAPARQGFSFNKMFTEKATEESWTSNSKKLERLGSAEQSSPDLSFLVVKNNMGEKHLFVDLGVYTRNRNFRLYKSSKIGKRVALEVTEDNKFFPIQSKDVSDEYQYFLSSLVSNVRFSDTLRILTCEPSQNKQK
The experiment in a line: EMSA; 10 mM Mg2+; text gives 0.67 uM, Figure 5 legend 0.69 uM; EMSA: 60 nM DNA, 10 mM Bis-Tris-Propane-HCl pH 7.0, 10 mM MgCl2, 1 mM DTT, 25 C, 60 min; 5% polyacrylamide gel in 0.5x TBE. The settings on record: protein: recombinant; label: 5'-Hex on strand 1 (HP-20); 20 bp duplex, 5' overhang 30 nt on template strand (S12), other end blunt.

B1: Overhanging DNA substrate (HP-20 primer / ND-50 TemplateTT) (dsDNA)
DNA 1: TGTCGTCTGTTCGGTCGTTC
DNA 2: CGCGCAGGGCGCACAACAGCCTTGAAGACCGAACGACCGAACAGACGACA
As for B1, the Kd (in general, the concentration at which binding is half-saturated) was found to be 690 nM.
